Experimental data: publication PMC8752090

Target: adaptor protein complex 2 (AP-2), P17426;Q9DBG3;P84091;P62743
Experiment: GST pull-down from brain lysate, immunoblot band quantification
Settings: chain shown with the change; n = 3 independent experiments; parent: est. 1.0; read off a plot

ratio to parent: 0.19
B1: GST-VGLUT1 C-terminus-WT (cytoplasmic C-terminal region of VGLUT1, a.a. 496-560), Q3TXX4 F510A; V511A (protein)
chain: PWAEPEEMSEEKCGAAGHDQLAGSDESEMEDEAEPPGAPPAPPPSYGATHSTVQPPRPPPPVRDY
